This experiment has as its target T1, HIV-1 Env on the cell surface (HIV-1, strain BG505 (clade A), wild type, UniProt Q2N0S6).
T1 construct: also called cell-surface HIV-1 Env; source: 293T, transfected, on cells
The experiment can be described thus: flow cytometry on cells. The following applies: one partner purified.

The values that follow come from PMC6891888 (Immunity, 2019).

B1: 1C2 (rabbit monoclonal antibody, IgG) (antibody, V domains shown)
VH: QSLEESGGDLVKPGASLTLTCTASGFSFGWNDYMSWVRQAPGKGLEWIGCIYAGSTRSTYYANWAKGRLTISKTSSTAVTLQMTSLTAADTATYFCARGAVTYDGLGGAYLKHFNLWGPGTLVTVSS
VL: AIKMTQTPSSVSAAVGGTVTVNCRASEDIESYLAWYQQKPGQPPKLLIYDTSKLASGVPSRFKGSGSGTQFALTISGVQCDDAATYYCLYGYISSDRIDFGFGGGTELVVK
notes: also called bNAb 1C2; vax-bNAb 1C2
On to B1, for which the binding result is listed as “binds”.
